Assay [1] concerns the target Insulin receptor. Description: SPR (BIACORE 3000), insulin receptor immobilised on CM5 chip; Test 2.
For assay [2], the target named is Insulin receptor. Briefly: SPR (BIACORE 3000), insulin receptor immobilised on CM5 chip; Test 3.
Assay [3] deals with Insulin receptor. Description: SPR (BIACORE 3000), insulin receptor immobilised on CM5 chip; Test 4.
The target in assay [4] is Insulin receptor. Briefly: SPR (BIACORE 3000), insulin receptor immobilised on CM5 chip; Test 5.

The text below walks through data of patent publication US20170101455A1.

In the assay with Insulin receptor [1], “Native insulin-immunoglobulin Fc conjugate” gave a Kd of 0.781 µM, a ka relative to native human insulin of 3.9%, a kd relative to native human insulin of 77.2% and a koff of 0.0078 s⁻¹. In the assay with Insulin receptor [1], this substance returned a kon of 9000 M⁻¹ s⁻¹ and a receptor binding affinity (KD) relative to native human insulin of 5.9%. In the assay with Insulin receptor [2], this substance showed a dissociation constant (Kd) of 1.24 µM, a ka relative to native human insulin of 2.7%, a kd relative to native human insulin of 54.5% and a dissociation rate constant (koff) of 0.00585 s⁻¹. In the assay with Insulin receptor [2], this substance came in with a kon of 5000 M⁻¹ s⁻¹ and a receptor binding affinity (KD) relative to native human insulin of 5.1%. In the assay with Insulin receptor [3], this substance came in with a Kd of 1.14 µM, a ka relative to native human insulin of 2.1%, a kd relative to native human insulin of 56.1% and a koff of 0.0069 s⁻¹. In the assay with Insulin receptor [3], this substance returned a receptor binding affinity (KD) relative to native human insulin of 3.7%. In the assay with Insulin receptor [4], this substance came in with a Kd of 0.862 µM, a ka relative to native human insulin of 4.3%, a kd relative to native human insulin of 76.5% and a koff of 0.0074 s⁻¹. Moreover, in the assay with Insulin receptor [4], the kon was determined as 9000 M⁻¹ s⁻¹ and the receptor binding affinity (KD) relative to native human insulin amounted to 5.9%.
